# Patent US6890900B2, “Methods for treating or preventing diseases of the oral cavity” (Campina B.V., priority 2001, dated 2005)
# B1: LF: Bovine lactoferrin, iron-binding glycoprotein purified from milk, provided by DMV International (protein, UniProt P24627 20-708, looked up)
# Lactotransferrin: APRKNVRWCTISQPEWFKCRRWQWRMKKLGAPSITCVRRAFALECIRAIAEKKADAVTLDGGMVFEAGRDPYKLRPVAAEIYGTKESPQTHYYAVAVVKKGSNFQLDQLQGRKSCHTGLGRSAGWIIPMGILRPYLSWTESLEPLQGAVAKFFSASCVPCIDRQAYPNLCQLCKGEGENQCACSSREPYFGYSGAFKCLQDGAGDVAFVKETTVFENLPEKADRDQYELLCLNNSRAPVDAFKECHLAQVPSHAVVARSVDGKEDLIWKLLSKAQEKFGKNKSRSFQLFGSPPGQRDLLFKDSALGFLRIPSKVDSALYLGSRYLTTLKNLRETAEEVKARYTRVVWCAVGPEEQKKCQQWSQQSGQNVTCATASTTDDCIVLVLKGEADALNLDGGYIYTAGKCGLVPVLAENRKSSKHSSLDCVLRPTEGYLAVAVVKKANEGLTWNSLKDKKSCHTAVDRTAGWNIPMGLIVNQTGSCAFDEFFSQSCAPGADPKSRLCALCAGDDQGLDKCVPNSKEKYYGYTGAFRCLAEDVGDVAFVKNDTVWENTNGESTADWAKNLNREDFRLLCLDGTRKPVTEAQSCHLAVAPNHAVVSRSDRAAHVKQVLLHQQALFGKNGKNCPDKFCLFKSETKNLLFNDNTECLAKLGGRPTYEEYLGTEYVTAIANLKKCSTSPLLEACAFLTR
# Legend:
# [1] = tested on: Streptococcus pyogenes ATCC #19615; experiment: LF/GMP assay, viable plate count (pour plate) of broth culture; format: cell-based; design: key to MIBC: NCF: No Effective Concentration Found; conditions: 35° C.; for Colony Counts: viable plate count
# Protocol: Bacterial strains used in this study were Pseudomonas aeruginosa ATCC #27853, Streptococcus mutans ATCC #33535, Streptococcus pyogenes ATCC #19615, and Actinobacillus haemophilus ATCC #43717 and an oral swab from a healthy adult. Bacteria were grown on blood/BHT media (Brain Heart Infusion Agar with protease peptone, sodium chloride, glucose, di-sodium phosphate, and agar, Oxoid, Hampshire England, Sheep's Blood) in the presence of 5% CO2 at 35° C. […] The 0.5 McFarland value is approximately equivalent to 1.0×10^8 organisms. One ml of the appropriate bacterial dilution was taken using a sterile pipette and introduced into 8 ml of sterilized BHI broth. […] By pipette, 9 ml of broth was placed into medium test tubes as means of a control and 8 ml test tubes were prepared for the concentration tests). […] This solution was filtered through a 0.45 μm filter. […] Example for calculating 2,500 ppm dilution (1,000 ppm=0.1%): [formula] [formula] [formula] To study the kinetics of LF/GMP binding, each strain of bacteria was taken separately with a sterile pipette and placed into an 8 ml BHI broth test tube, vortexed, and incubated in the presence of 1 ml of LF or GMP for 18-24 hours at 35° C. with 5% CO2. In the combination procedure, 0.5 ml of both LF and […] were taken as 1 ml inoculations. This technique was used to determine the density of living (viable) cells in inoculated broth cultures. It involves plating a bacterial sample and counting the resulting colonies after incubation. A serial dilution of the original broth was taken prior to plating. The serial dilution is necessary to reduce the density of organisms in order to create countable plates. Only plates containing between 25 and 250 colonies are considered countable. Cell densities are traditionally recorded as CFU (colony forming unit)/ml. […] Formula: [formula] The assays required the use of a pour plate technique. The pour plate technique adds a step to the conventional serial dilution. The 1 ml of dilution is added to a warm emulsion of dilute nutrient (BHI) agar to produce an agar overlay in the petri plates. After incubation, the bacterial growth covers the entire plate but individual cellular movement has been restricted by the soft agar overlay. Each colony formed is assumed to have originated from a single CFU. The plates were gently mixed, inverted, and incubated for 18-24 hour at 35° C. Using a control (one broth tube inoculated with a bacterial strain, but no LF), the effectiveness of LF was examined. Each test tube containing a specified amount of LF (50, 100, 250, 500, 1,000 ppm and 3000 ppm) was diluted and plates were poured. After incubating the plates for 24 hours at 35° C. with 5% CO2 (the normal conditions of an oral cavity), the bacterial recovery count was taken and the results were compared to the control. A. haemophilus, S. mutans, S. pyrogenes and an oral culture were tested at 35° C. Pseudomonas aeruginosa was tested at both room temperature and 35° C. with 5% CO2. This was done because P. aeruginosa is not strictly an oral pathogen. It is commonly found in the environment in various conditions. It can be found in the environment and oral intake can cause inflammation in the oral cavity. Most normal oral bacteria are only found in the mouth and are not taken in from outside factors. Therefore, P. aeruginosa is a threat in both temperature settings. Table 1 depicts the minimum inhibitor concentration (MBEC) for each of the bacterial strains at 35° C. S. pyogenes and the oral culture were not effected by LF at any tested concentration. […] (see Table 2).
# [2] = tested on: Pseudomonas aeruginosa ATCC #27853; experiment: as above; format: cell-based; design: key to MIBC: NCF: No Effective Concentration Found; conditions: for Colony Counts: viable plate count
# Protocol: Bacterial strains used in this study were Pseudomonas aeruginosa ATCC #27853, Streptococcus mutans ATCC #33535, Streptococcus pyogenes ATCC #19615, and Actinobacillus haemophilus ATCC #43717 and an oral swab from a healthy adult. Bacteria were grown on blood/BHT media (Brain Heart Infusion Agar with protease peptone, sodium chloride, glucose, di-sodium phosphate, and agar, Oxoid, Hampshire England, Sheep's Blood) in the presence of 5% CO2 at 35° C. Bacteria were harvested by swabbing inoculated growth plates after 24 hours and diluting the colonies in 9 ml of deionized water (DI water) until a suspension of 0.5 McFarland Turbidity Standard was reached using the nephelometer (McFarland Turbidity Meter). The 0.5 McFarland value is approximately equivalent to 1.0×10^8 organisms. One ml of the appropriate bacterial dilution was taken using a sterile pipette and introduced into 8 ml of sterilized BHI broth. (Preparation of BHI broth: 37 g+1,000 ml DI water, Difco Laboratories. By pipette, 9 ml of broth was placed into medium test tubes as means of a control and 8 ml test tubes were prepared for the concentration tests).
# This solution was filtered through a 0.45 μm filter. […] Example for calculating 2,500 ppm dilution (1,000 ppm=0.1%): [formula] [formula] [formula] […]
# One mL of each bacterial strain, plus one mL of sialic acid solution (1,000 ppm) were inoculated into test tubes filled with 8 mL of BHI broth. Each test tube was vortexed, incubated for 24 hours at 35° C. with 5% CO2, and then pour plated in BHI agar to obtain a plate count.
# This technique was used to determine the density of living (viable) cells in inoculated broth cultures. It involves plating a bacterial sample and counting the resulting colonies after incubation. A serial dilution of the original broth was taken prior to plating. The serial dilution is necessary to reduce the density of organisms in order to create countable plates. Only plates containing between 25 and 250 colonies are considered countable. Cell densities are traditionally recorded as CFU (colony forming unit)/ml. By convention, when 1.0 ml is inoculated onto a plate, the dilution factor (DF) is recorded as tenfold greater. Formula: [formula]
# The assays required the use of a pour plate technique. The pour plate technique adds a step to the conventional serial dilution. The 1 ml of dilution is added to a warm emulsion of dilute nutrient (BHI) agar to produce an agar overlay in the petri plates. After incubation, the bacterial growth covers the entire plate but individual cellular movement has been restricted by the soft agar overlay. Each colony formed is assumed to have originated from a single CFU. The plates were gently mixed, inverted, and incubated for 18-24 hour at 35° C. […]
molecule,measurement,setting,value
B1,Colony Counts,"[1]; 50 ppm, 24 h",5.8 × 10^7
same,Colony Counts,"[1]; 100 ppm, 24 h",1.5 × 10^7
same,Colony Counts,"[1]; 500 ppm, 24 h",7.8 × 10^7
same,Colony Counts,"[1]; 3,000 ppm, 24 h",1.7 × 10^8
same,Total Log Reduction,[1]; Lactoferrin/GMP 250/0 ppm (LF alone),0 log
same,Total Log Reduction,"[1]; Lactoferrin/GMP 3,000/0 ppm (LF alone)",0 log
same,# Log Reductions,"[1]; at the MIBC, vs control",0 log
same,effect on growth (in words),"[1]; single agent, any tested concentration",not effected
same,MIBC,"[1]; single agent, 24 h, 5% CO2",NCF
same,Colony Counts,"[2]; 50 ppm, 35° C., 24 h",4.6 × 10^8
same,Colony Counts,"[2]; 100 ppm, 35° C., 24 h",3.6 × 10^8
same,Colony Counts,"[2]; 250 ppm, 35° C., 24 h",2.6 × 10^8
same,Colony Counts,"[2]; 1,000 ppm, 35° C., 24 h",3.2 × 10^8
same,Colony Counts,"[2]; 3,000 ppm, 35° C., 24 h",1.2 × 10^8
same,Total Log Reduction,"[2]; Lactoferrin/GMP 250/0 ppm (LF alone), 23° C. (room temperature)",1 log
same,Total Log Reduction,"[2]; Lactoferrin/GMP 250/0 ppm (LF alone), 35° C.",0 log
same,Total Log Reduction,"[2]; Lactoferrin/GMP 3,000/0 ppm (LF alone), 23° C. (room temperature)",0 log
same,Total Log Reduction,"[2]; Lactoferrin/GMP 3,000/0 ppm (LF alone), 35° C.",0 log
same,# Log Reductions,"[2]; at the MIBC, vs control, 35° C.",0 log
same,MIBC,"[2]; single agent, 35° C., 24 h, 5% CO2",NCF
